Stoichiometry N data for one substance are collected here from paper PMC8633780.

The test concerns the target EstN7, cold active family IV (hormone sensitive lipase family) esterase from Bacillus cohnii strain N1 (Bacillus cohnii strain N1). Kind of test: SEC; size exclusion chromatography of purified EstN7 in solution (supplementary figure S1). On the technique in general: Size exclusion chromatography separates by hydrodynamic size, large species first.

As a reminder, the stoichiometry N is a count of units in the complex or per binding partner. Substance “EstN7, cold active family IV (hormone sensitive lipase family) esterase from Bacillus cohnii strain N1 (enzyme)” returned a stoichiometry N of 2.
